± gives the uncertainty stated by the source.
Assay: self-splicing fitness, log relative to wild type (ln ratio); higher = more splicing; Tetrahymena group I intron in knt gene, E. coli kanamycin selection, DiMSum; sequences stand for … in CUCUCU…GGAGGGAAAAGUUAUCAGGCAUGCACCUGGUAGCUAGUCUUUAAACCAAUAGAUUGCAUCGGUUUAAAAGGCAAGACCGUCAAAUUGCGGGAAAGGGGUCAACAGCCGUUCAGUACCAAGUCUCAGGGGAAACUUUGAGAUGGCCUUGCAAAGGGUAUGGUAAUAAGCUGACGGACAUGGUCCUAACCACGCAGCCAAGUCCUAAGUCAACAGAUCUUCUGUUGAUAUGGAUGCAGUUCACAGACUAAAUGUCGGUCGGGGAAGAUGUAUUCUUCUCAUAAGAUAUAGUCGGACCUCUCCUUAAUGGGAGCUAGCGGAUGAAGUGAUGCAACACUGGAGCCGCUGGGAACUAAUUUGUAUGCGAAAGUAUAUUGAUUAGUUUUGGAGUACUCGUGGUCG
In short: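 The eight P1ex-region nucleotides of an intron in the knt kanamycin-resistance gene on pET-22b(+) were all randomised and the library put into E. coli BL21(DE3). Six replicate transformations were grown overnight at 37°C or 30°C on LB agar with or without 25 μg/mL kanamycin, together with 100 μg/mL carbenicillin, 50 μM IPTG and 0.2% rhamnose. Colonies were pooled and amplicon-sequenced on an Illumina HiSeq 2500. Fitness from DiMSum is the error-weighted combination of wild-type-normalised replicate fold changes, kanamycin over none.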

Sequence	self-splicing fitness (ln) (30 °C)	self-splicing fitness (ln) (37 °C)
AUCUAGCAAUAUUACGCGGG	-3.32 ± 0.26	-2.12 ± 0.23
AUCUAGCAAUAUUACGCGUU	-1.76 ± 0.096	-0.994 ± 0.1
AUCUAGCAAUAUUACGCUCC	-0.7 ± 0.18	-0.736 ± 0.25
AUCUAGCAAUAUUACGCUGC	-2.92 ± 0.24	-1.66 ± 0.18
AUCUAGCAAUAUUACGCUUC	-3.91 ± 0.36	-2.03 ± 0.23
AUCUAGCAAUAUUACGGAAC	-4.03 ± 0.37	-1.75 ± 0.24
AUCUAGCAAUAUUACGGCCC	0.132 ± 0.2	-0.0846 ± 0.33
AUCUAGCAAUAUUACGGCUC	-0.871 ± 0.16	-0.185 ± 0.19
AUCUAGCAAUAUUACGGGAA	-0.643 ± 0.13	-0.903 ± 0.14
AUCUAGCAAUAUUACGGUCA	-1.31 ± 0.15	-0.841 ± 0.14
AUCUAGCAAUAUUACGUUAC	-1.99 ± 0.27	-1.74 ± 0.34
AUGAAGCAAUAUUACGAAGA	-1.9 ± 0.13	-0.83 ± 0.16
AUGAAGCAAUAUUACGAGAA	-3.53 ± 0.27	-1.07 ± 0.16
AUGAAGCAAUAUUACGAGCC	-3.01 ± 0.38	-3.27 ± 0.38
AUGAAGCAAUAUUACGAGGA	-1.44 ± 0.14	-2.6 ± 0.2
AUGAAGCAAUAUUACGAUGC	-1.95 ± 0.13	-0.813 ± 0.17
AUGAAGCAAUAUUACGCAGG	-0.47 ± 0.12	-0.916 ± 0.14
AUGAAGCAAUAUUACGCAUC	-4.84 ± 0.29	-2.45 ± 0.17
AUGAAGCAAUAUUACGCCCU	0.921 ± 0.15	0.202 ± 0.17
AUGAAGCAAUAUUACGCGAC	-2.1 ± 0.15	-1.96 ± 0.27
AUGAAGCAAUAUUACGCGAG	-0.689 ± 0.09	-0.225 ± 0.099
AUGAAGCAAUAUUACGCGAU	-2.89 ± 0.21	-1.59 ± 0.23
AUGAAGCAAUAUUACGGAAC	-0.855 ± 0.098	-1.24 ± 0.15
AUGAAGCAAUAUUACGGACC	-0.516 ± 0.22	0.108 ± 0.23

Sequence	self-splicing fitness (ln) (30 °C)	self-splicing fitness (ln) (37 °C)
AUGAAGCAAUAUUACGGCCC	-0.0924 ± 0.12	0.156 ± 0.17
AUGAAGCAAUAUUACGGCUC	-0.602 ± 0.12	0.254 ± 0.13
AUGAAGCAAUAUUACGUACU	0.105 ± 0.096	0.581 ± 0.11
AUGAAGCAAUAUUACGUCUC	-1.1 ± 0.14	-1.22 ± 0.14
AUGAAGCAAUAUUACGUGCA	-0.0826 ± 0.093	0.364 ± 0.11
AUGAAGCAAUAUUACGUUAA	-1.51 ± 0.084	-0.908 ± 0.1
AUGAAGCAAUAUUACGUUAC	-1.96 ± 0.13	-2.38 ± 0.24
AUGAAGCAAUAUUACGUUAU	-0.343 ± 0.071	-0.555 ± 0.096
AUGCAGCAAUAUUACGAAAA	–	-2.23 ± 0.42
AUGCAGCAAUAUUACGAAGU	-2 ± 0.15	-1.75 ± 0.12
AUGCAGCAAUAUUACGAUCC	-1.78 ± 0.22	-0.259 ± 0.29
AUGCAGCAAUAUUACGAUGG	-3.04 ± 0.21	-2.94 ± 0.27
AUGCAGCAAUAUUACGCAAU	-2.65 ± 0.12	-1.98 ± 0.13
AUGCAGCAAUAUUACGCAGC	–	-1.91 ± 0.46
AUGCAGCAAUAUUACGCCAG	-2.18 ± 0.13	-1.23 ± 0.17
AUGCAGCAAUAUUACGCCGU	-1.25 ± 0.069	-0.859 ± 0.083
AUGCAGCAAUAUUACGCCUU	-0.919 ± 0.072	-0.304 ± 0.095
AUGCAGCAAUAUUACGCGCC	-0.788 ± 0.15	-0.038 ± 0.16
AUGCAGCAAUAUUACGCUAA	-0.813 ± 0.13	-0.31 ± 0.12
AUGCAGCAAUAUUACGUGGU	-2.7 ± 0.095	-2.18 ± 0.1
AUGGAGCAAUAUUACGACAG	-2.74 ± 0.28	-0.415 ± 0.28
AUGGAGCAAUAUUACGACGC	-1.44 ± 0.16	-0.789 ± 0.19
AUGGAGCAAUAUUACGAUCA	–	-1.09 ± 0.25
AUGGAGCAAUAUUACGAUGC	-2.15 ± 0.37	-2.04 ± 0.35

Sequence	self-splicing fitness (ln) (30 °C)	self-splicing fitness (ln) (37 °C)
AUGGAGCAAUAUUACGCAUG	-2.5 ± 0.34	-2.36 ± 0.25
AUGGAGCAAUAUUACGCCGA	-2.82 ± 0.32	-2.87 ± 0.48
AUGGAGCAAUAUUACGCGGA	-2.73 ± 0.29	-1.34 ± 0.22
AUGGAGCAAUAUUACGGAAU	-2.66 ± 0.32	-2.02 ± 0.47
AUGGAGCAAUAUUACGGCAU	-0.641 ± 0.16	-0.53 ± 0.16
AUGGAGCAAUAUUACGGCCA	-1.49 ± 0.18	-0.494 ± 0.21
AUGGAGCAAUAUUACGGCCC	-1.13 ± 0.24	-1.43 ± 0.31
AUGGAGCAAUAUUACGGGCG	-3.21 ± 0.26	-2.63 ± 0.44
AUGGAGCAAUAUUACGGUAG	-3.61 ± 0.33	-2.51 ± 0.41
AUGGAGCAAUAUUACGGUCA	-2.19 ± 0.24	-0.926 ± 0.2
AUGGAGCAAUAUUACGUCCC	0.0307 ± 0.46	-0.013 ± 0.42
AUGGAGCAAUAUUACGUGGG	-3.61 ± 0.37	-0.89 ± 0.27
AUGGAGCAAUAUUACGUUUC	-3.47 ± 0.21	-2.68 ± 0.26
AUGUAGCAAUAUUACGACCU	-0.739 ± 0.28	-0.136 ± 0.34
AUGUAGCAAUAUUACGAGUC	-2.95 ± 0.23	-3.28 ± 0.4
AUGUAGCAAUAUUACGCCAG	-3.46 ± 0.31	-1.05 ± 0.31
AUGUAGCAAUAUUACGCGAU	-2.09 ± 0.2	-2.55 ± 0.24
AUGUAGCAAUAUUACGCGCU	-0.77 ± 0.14	-0.00271 ± 0.15
AUGUAGCAAUAUUACGCGGC	-4.15 ± 0.4	-3.45 ± 0.27
AUGUAGCAAUAUUACGCUCA	-0.372 ± 0.075	-0.2 ± 0.1
AUGUAGCAAUAUUACGCUCC	-0.373 ± 0.28	-0.973 ± 0.45
AUGUAGCAAUAUUACGCUGU	-2.92 ± 0.12	-1.12 ± 0.11
AUGUAGCAAUAUUACGCUUU	-3.23 ± 0.15	-1.29 ± 0.11
AUGUAGCAAUAUUACGGCGG	-0.915 ± 0.19	-1.14 ± 0.23

Sequence	self-splicing fitness (ln) (30 °C)	self-splicing fitness (ln) (37 °C)
AUGUAGCAAUAUUACGGUAG	-4.38 ± 0.32	-3.33 ± 0.42
AUGUAGCAAUAUUACGGUCC	-1.32 ± 0.1	0.341 ± 0.12
AUGUAGCAAUAUUACGUCAA	-2.9 ± 0.3	-2.98 ± 0.35
AUGUAGCAAUAUUACGUCGU	-3.28 ± 0.24	-0.241 ± 0.12
AUGUAGCAAUAUUACGUGGU	–	-1.53 ± 0.17
AUGUAGCAAUAUUACGUGUG	-3.33 ± 0.23	-2.53 ± 0.15
AUUAAGCAAUAUUACGAACA	-1.43 ± 0.14	-0.718 ± 0.17
AUUAAGCAAUAUUACGACCU	-0.144 ± 0.17	0.145 ± 0.18
AUUAAGCAAUAUUACGACUA	-1.05 ± 0.12	-0.207 ± 0.15
AUUAAGCAAUAUUACGAUAC	-1.93 ± 0.11	-0.885 ± 0.15
AUUAAGCAAUAUUACGAUUC	-1.89 ± 0.1	-0.797 ± 0.12
AUUAAGCAAUAUUACGAUUU	-0.227 ± 0.091	1.04 ± 0.12
AUUAAGCAAUAUUACGCACC	-1.52 ± 0.19	0.0961 ± 0.28
AUUAAGCAAUAUUACGCAGU	-3.15 ± 0.21	-2.48 ± 0.21
AUUAAGCAAUAUUACGCCCC	-1.21 ± 0.31	0.0189 ± 0.48
AUUAAGCAAUAUUACGCUAU	-3.62 ± 0.26	-1.73 ± 0.26
AUUAAGCAAUAUUACGGAAA	-2.98 ± 0.29	-1.77 ± 0.26
AUUAAGCAAUAUUACGGACU	0.271 ± 0.11	0.324 ± 0.15
AUUAAGCAAUAUUACGGGGC	-3 ± 0.21	-1.98 ± 0.26
AUUAAGCAAUAUUACGGGGG	-2.97 ± 0.27	-2.33 ± 0.33
AUUAAGCAAUAUUACGGUAC	-3.84 ± 0.47	-1.6 ± 0.2
AUUAAGCAAUAUUACGUAUC	-3.93 ± 0.25	-2.31 ± 0.24
AUUAAGCAAUAUUACGUCCA	-0.883 ± 0.098	-0.386 ± 0.12
AUUAAGCAAUAUUACGUGAC	-3.17 ± 0.17	-1.75 ± 0.18

From the supplement of paper PMC7877785
